# Test results taken from the nanobody polyreactivity screen of Harvey et al. (2022).
# Experiment: yeast display, Sf9 membrane polyspecificity reagent, FACS + sequencing; frameworks hold sequencing errors
# Summary of the method: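 Nanobodies came from a synthetic yeast display library in Saccharomyces cerevisiae BJ5465, induced with galactose for 36–48 hours and stained for 1 hour at 4 °C with 10% biotinylated, detergent-solubilized Sf9 membrane reagent. Cells were enriched on streptavidin microbeads and then FACS-sorted, with low and high (top ~1%) gates set on anti-HA fluorescence for expression and streptavidin fluorescence for reagent binding. Each polyreactivity label reflects the gate a clone came from. Genes were amplified by colony PCR, sequenced by MiSeq 2 × 250 and filtered by CDR length.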
row,Sequence,polyreactivity (PSR sort gate)
1,QVQLVESGGCLVQAGGSLRLSCAATGRTFHGYAMGWYRQAPGKERELVAAITSSGARTYYADSVKGRFTISRDNAKNTVYLQMNSLKPEDTAVYYCAKRGKQYRKMNYWGQGTQVTVSS,high polyreactivity
2,QVQLVESGGCLVQAGGSLRLSCAPSGSTFIPNPMGWYRQEPGKERELVAAISRRGGSTNYADSVKGRFTISRDNAKNTVFLQMNSVKPEDTAVYYCAAVSPRRYRYDYWGQGPQVTVSS,low polyreactivity
3,QVQLVESGGCLVQAGGSLRLSCASSGIIIRKYAMGWYRQQPGKERELVAAITTRGSRTYYADSVKGRFTISRDNAKNTVYLQMNSLKPEDTAVYYCASDRYTVRMDYWGQGTQVTVSS,high polyreactivity
4,QVQLVESGGCLVQAGGSLRLSCSSSGFIFFYNMGWYRQAPGKERDLVADISTGGSTNYADSVKGRFTISRDNAKNTVYLQMNSLKQEDTAVYYCAAVYYNVYQYEPWYDYWGQGTQVTVSS,low polyreactivity
5,QVQLVESGGCLVQAGGSLRLSSAASGSIFHAYAMGWYRQSPGKESELVAAITIDGSTNYADSVKGRFTISRDNAKNTVYLQMNSLKPEDTAVYYCNKDGAYDAYSYDYWGQGTQVTVSS,low polyreactivity
6,QVQLVESGGCLVQAGGSRRLSCDASVRIVPVYAMGWYRQAHGNERELVAAISQSGGSTYADSVKGRFTISRDNAKNTVYLQMNSLKPEDTAVYYCAARYWKWRPAYEYWGPGTQVTVSS,high polyreactivity
7,QVQLVESGGCLVQAGGTLRLSCAASGSILNSYALGWYRQAPGKERELVAAIDNRGGSTHYADSVKGRFTISRDNAKNTVYLQMNSLKPEDTAVYYCAKRFYGSVGYWRYYYWGQGTQVTVSS,low polyreactivity
8,QVQLVESGGCLVQAGVSLRLSCAASGSIFSPYAMGWYRQAPGKEREFVASITFNGGSTYYADSVKGRFTISRDNAKNTVYLQMNSLKPEDTAVYYCAASYWYDTYWLMDYWGQGPQVTVSS,high polyreactivity
9,QVQLVESGGCLVQARGSLRLSCAASGSTFGTYAMGWYRQPPGKERELVAAIRWSGVSTYYADSVKGRFTISRDNAKNTVYLEMNSLKPEDTAVYYCAVALWVRGTYIYEYWGQGSQVTVSS,high polyreactivity
10,QVQLVESGGCLVQARGSLRLSCAASGSTFTYNTMGWYRQAPGKESELVAGITKSGGSTYYADSVKGRFTISRDKAKNTVYLQMNSLKPEDTAVYYCATSTSRRYGSRHNYWGQGTQVTVSS,high polyreactivity
11,QVQLVESGGCLVQEGGSLRLSCAASGSIFHDYIMGWYRQAPGKEMELVAAMSSGGSTYYADSVKGRFTISRDNAKNTVYLQMNSLKPEDTEVYYCAAKSRSQVYPHYYWGQGTQVTVSS,low polyreactivity
12,QVQLVESGGCLVQEGGSLRLSCDASGRTFLTYAMGWYRQAPGKERELVAAITDGDSTNYADSVKGRFTISRDNAKNNVYLQMNSLKPEDTAVYYCNADSLAYRYYYWGQGTQVTVSS,high polyreactivity
13,QVQLVESGGCLVQSGGSLRLSCAASGIILYYYAMGWYRQAPGKERELVAAISSGGNTYYADSVKGRFTISRDNAKNTVYLQMNSLKPEDPAVYFCASGTVIGGEYDYWGQGTQVTVSS,low polyreactivity
14,QVQLVESGGDLVQAGGSLRLSCAASGFTLTNYAMGWYRQATGKARELVAAITSSGGSTYYADSVKGRFTISRDNAKNTVYFQMNSLKPEDTAVYYCAAQGSRHFRWRYDYWGQGTQVTVSS,high polyreactivity
15,QVQLVESGGGFDQAGGSLRLSCAACGSIFWSNAMGWYRQAPGKERELVAAISSGGSTYADSVKGRLTISRDNAKNTVYLQMNSLKPEDNAVYYCNADVLYGDCYRGGYWGQGTQVTVSS,low polyreactivity
16,QVQLVESGGGFVHAGGSLRLSCAASGLIFGKYAMGWYRQAPGKERELVAAITSSGGGTYYADSVKGRFTISRDNAKNTVSLQMNSVKADDTAVYYCATGPDPKYDYRGQGTQVTVSS,high polyreactivity
17,QVQLVESGGGFVQAGGSHRLSCASSGRTFVLYTMGLYRQAPGKERELVAVGSTYYADSVKGRFTISRDNAKNTVYLQMNSLKPEDTALYYCNKPGNYLWRRSWDFYYWGQGTQVTVST,high polyreactivity
18,QVQLVESGGGFVQAGGSLRLICAAYRSIFSLYAMGWYRQAPGKERELVAHISSDGSTNYADSVKGRFTISRDNAKNTVYLQMNSLKPEDTAVYYCAKKPSSARYFTIGFDYWGQGTQVTVSS,low polyreactivity
19,QVQLVESGGGFVQAGGSLRLSCAASGFTFVGYAMGWYRQAPGKERELVAAITRRGGSTYYADSVKGRFTISRDNAKNTVYLQMNSLKPEDTAVYYCNKASYRISVPRYDYWGQGTQVTVSS,high polyreactivity
20,QVQLVESGGGFVQAGGSLRLSCAASGGIFGSYAIGWYRQAPGKERELVADITQSGGRTRNADSVKGRFTSSRDNAKNTVYLQKNSLKPEDTALYYCNAQDVDSGDDYDYWGQGTQVTVSS,low polyreactivity
21,QVQLVESGGGFVQAGGSLRLSCAASGLIFGRYGLGWYRQAPGKAREFVAAITQSGGATYYADSVKGRFTISRDNAKNTVYLQMNSLKPEDTAVYYCNAPIAYWRVHDKYGYWGQGTQLTVSS,low polyreactivity

row,Sequence,polyreactivity (PSR sort gate)
1,QVQLVESGGGFVQAGGSLRLSCAASGLTFYGYAMGWYRQEPGKERELVAAISGSGARTYYADSVKGRFTISRDNAKNTVYFQMNSLKPEDTAVYYCAVRGSWYSEHNYWGQGTQVTVSS,high polyreactivity
2,QVQLVESGGGFVQAGGSLRLSCAASGRIFRYYAMGWSRQAPGKERELVAAINSGGSTKYADSVKGRFTISRDNAKNTVYFQMNSLNPEDTAVYYCNKDHAFSRYWYGGFDYWGQGTQVTVSS,high polyreactivity
3,QVQLVESGGGFVQAGGSLRLSCAASGRIRFYAMGWYRQAPGKERELVAAISSSGGSTYYADSVKGSFTISRDNAKNTVYLQMNSLKPEDTAVYYCAAAWYYLGTRAQLYDYWGQGTQVTVSS,low polyreactivity
4,QVQLVESGGGFVQAGGSLRLSCAASGRTFPRYAMGWYRQAPGKERELVAAITRGGGTNYADSVKGRFTISRDNAKNTVYLQMNSLKPEDTAVYYCNRALLYRGYKFDYWGQGTHVTVSS,high polyreactivity
5,QVQLVESGGGFVQAGGSLRLSCAASGRTFRWNAMGWYRQAPGKERELVAAISSGGSTYYADSVKGRFTISRDNAKNTVYLQMNSLKPEDTAVYYCAKTSFKYRWSYPVISMDYWGQATQVTVSS,high polyreactivity
6,QVQLVESGGGFVQAGGSLRLSCAASGSIFAYYVMGWYRPAPGTERELGAAITSVGSTNYADSVKGRFTISRDNAKNTVYLQMNSLKPQDTAVYYCADDQYQARYYYWGQGTQVTVSS,low polyreactivity
7,QVQLVESGGGFVQAGGSLRLSCAASGSIFKRYAMGWYRQAPGKEWELVARISRRGGTYYADSVKGRFTISRDNAKNTVYLQINSLKPDDTAVYYCNANVIFADNNDRDYWGQGTQVTVSS,low polyreactivity
8,QVQLVESGGGFVQAGGSLRLSCAASGSIFVTNAMGWYRQAPGKDRELVAAISVSGGSTYYADSVKGRFTISRDNAKNTVYLQMNSLKPEDTAVYYCNTVRSPPGHDYWGLGTQVTVSS,low polyreactivity
9,QVQLVESGGGFVQAGGSLRLSCAASGSTFHDNAMGWYRQAPGKERELVAGISISGVSTFYADSVKGRFTISRDYAKNTVYLQMNSLKPEDTAVYYCTADDVSAYQRFDYWGQGTQVTVSS,low polyreactivity
10,QVQLVESGGGFVQAGGSLRLSCAASGSTFYHNAMGWYRPAPGKERELVAAISSGGSTHYADSVKGRFTISRDNEKNTVYLQKNILKPEDTAVYYCAKARPGFLYDHWGQGTQVTVSS,high polyreactivity
11,QVQLVESGGGFVQAGGSLRLSCASSGRTFHYYAMGWYRQAPGKERELVAAISFDGGTTYYADSVKGRFTISRDNAKNTVYLHMNSPKPEDTAVYYCNALRYRDRVGYNYWGQGTQVTVSS,high polyreactivity
12,QVQLVESGGGFVQAGGSLRLSCVPSGRTYEPYAMGWYRQAPGKERELVAAIRWSGDRTYYADSVKGRFTISRDFAKITVYLHMISLKPEDTAVYYCAADYRARRWGMDYWGQGTQVTVSS,high polyreactivity
13,QVQLVESGGGFVQAGGSLRLSGAASGSIFYCNAMGWYRQAPGKDRELVAAISYSGGSTYYADSVKGRFTLSRDTAKNTVYLQMNSLKPEDTAVSDGAAGPITLRYLTIYYTFDYWGQGTQVTVSS,high polyreactivity
14,QVQLVESGGGFVQAGGSLSLSCAASGSTFIRYVMGWYRQAPGKERELVASITISVGSTYADSVKGRFTISRDNAKNTVYLQMNRMNPEDTAVYYCAASTLKDIYLWFRVDYWGQGTQVTVSS,low polyreactivity
15,QVQLVESGGGIGQAGGSLRLSCAASGFTFSRYTMAWFRRAPGKERELVAAINRRGGSTYYADSVKGRFTISRDNAKNTVYLQMNCEKPEDTAVYYCAATYTVRSGNGIANDYWGQGTQVTVSS,high polyreactivity
16,QVQLVESGGGILQAGGSLRLSCAASGSIFGGNAMGWYRQAPGKERELVAAITSTVSTNYADSVKGRFTISRDNAKNTVYLQMNSLKPEDTAVYYCANDTSNVEGDYWGQGTQVTVSS,low polyreactivity
17,QVQLVESGGGILQARGSRPLICAASGSNLSYNAMGWYRQAPGKEREFVATITGTGGSTRYADSVKGRFTFSRDNAKNTVYLQMNSLNPEDTAVYYCATAAWWYYRIYHEFGFLGQGTQVTVSS,high polyreactivity
18,QVQLVESGGGIVEAGVSLRISCAASGSIFTKNAMVWYRPAPGKARELVAAISSGGSTYYADSEKGRFSISRDNAKNTVYLQMNSLKPEDTAVYYCARGASFYLKFYYWGQGTQVTVSS,high polyreactivity
19,QVQLVESGGGIVQAGCSLRLSCAPSGSTFKNNAMGWDRQAPGKEREFVASIYKRGGSTYYADSVKGRFTISRDNAKNTVYLQKKSLTPEDTAVYYCAKTYWSYGWSHGDYGEVDYWGQGTQVNVSS,high polyreactivity
20,QVQLVESGGGIVQAGCSLRLSSAASGFTFYGYAMGWYRQAPGKERELVAAMSWDGSSTYYADSVKGRFTISRDNAKNTVYLPMNSLKPEDTAVYYCAREYYYGYYYPIQSDYWGQGTQVTVSS,low polyreactivity
